In patent US20160185837A1 (Medimmune Limited, priority 2013, published 2016):
Where two headings read alike, the source gives them in different places.

Experiments:
Type in all cases: cell-based
[1] = biological target: T1, human GLP-1 receptor (hGLP-1r) (Homo sapiens, UniProt P43220); experiment: BSA-cAMP assay, cells expressing human GLP-1 receptor; conditions: BSA-cAMP assay, read-out: hGLP1r cAMP activity EC50
T1 construct: expressed in transfected cells
Method: (§1) One basic cAMP assays was performed, differing in the medium used for the assay, the “BSA-cAMP assay”:
(§2) BSA-based assay medium: 0.1% bovine serum albumin (BSA) in
(§3) In certain aspects, the assay can also be carried out in medium supplemented with serum albumin that corresponds to the receptor being tested, e.g., human serum albumin for testing cAMP activity at hGIPr or hGLP-1r, rat serum albumin for testing cAMP activity at rGIPr or rGLP-1r, and so on. […] All sample dilutions were made in duplicate.
(§4) A frozen cryo-vial of cells expressing the receptor of interest was thawed rapidly in a water-bath, transferred to pre-warmed assay media and spun at 240×g for 5 minutes. Cells were re-suspended in assay buffer at an optimized concentration (e.g., hGLP-1r and hGIPr cells at 0.5×10^5 cells/ml).
(§5) To this, 5 μL cell suspension was added and the plates incubated at room temperature for 30 minutes.
(§6) cAMP levels were measured using a commercially available cAMP dynamic 2 HTRF kit (Cisbio, Cat #62AM4PEJ), following the two step protocol as per manufacturer's recommendations. In brief; anti-cAMP cryptate (donor fluorophore) and cAMP-d2 (acceptor fluorophore) were made up separately by diluting each 1/20 in conjugate & lysis buffer provided in the kit. 5 μL anti-cAMP cryptate was added to all wells of the assay plate, and 5 μL cAMP-d2 added to all wells except non-specific binding (NSB) wells, to which conjugate and lysis buffer was added. […] Data was transformed to % Delta F as described in manufacturer's guidelines and then transformed to percent activation of maximal native agonist response and analysed by 4-parameter logistic fit to determine EC50 values.
(§7) We used unconstrained 4 parameter logistic fit of data, curve mid-point to determine EC50. This was tested on two occasions, not two batches.

[2] = biological target: T2, human GIP receptor (hGIPr) (Homo sapiens, UniProt P48546); experiment: BSA-cAMP assay, cells expressing human GIP receptor; conditions: Batch 1; BSA-cAMP assay; read-out: hGIPr cAMP activity EC50
T2 construct: expressed in transfected cells
T2 sequence (P48546 22-466): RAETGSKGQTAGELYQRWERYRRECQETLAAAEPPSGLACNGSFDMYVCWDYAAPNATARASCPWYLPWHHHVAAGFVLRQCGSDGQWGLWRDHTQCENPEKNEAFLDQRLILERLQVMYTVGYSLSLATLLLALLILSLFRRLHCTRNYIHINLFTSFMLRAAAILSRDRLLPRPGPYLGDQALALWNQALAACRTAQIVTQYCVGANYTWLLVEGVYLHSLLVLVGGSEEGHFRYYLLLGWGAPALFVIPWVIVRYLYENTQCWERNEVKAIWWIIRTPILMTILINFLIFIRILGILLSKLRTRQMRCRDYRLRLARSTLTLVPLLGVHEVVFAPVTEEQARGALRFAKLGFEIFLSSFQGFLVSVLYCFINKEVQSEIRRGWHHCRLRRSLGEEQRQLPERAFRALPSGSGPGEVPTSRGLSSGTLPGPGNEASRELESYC
Method: For human GIPr, two different lines were used, shown as “hGIPr” and “hGIPr (C3)” in Table 11.
as §1, §2, §3, §4, §5, §6, §7

[3] = biological target: T3, human glucagon receptor (GCGr) (Homo sapiens, UniProt P47871); experiment: BSA-cAMP assay, cells expressing human glucagon receptor
T3 construct: expressed in transfected cells; host or cells: HEK293s or CHO cells
T3 sequence (P47871 26-477): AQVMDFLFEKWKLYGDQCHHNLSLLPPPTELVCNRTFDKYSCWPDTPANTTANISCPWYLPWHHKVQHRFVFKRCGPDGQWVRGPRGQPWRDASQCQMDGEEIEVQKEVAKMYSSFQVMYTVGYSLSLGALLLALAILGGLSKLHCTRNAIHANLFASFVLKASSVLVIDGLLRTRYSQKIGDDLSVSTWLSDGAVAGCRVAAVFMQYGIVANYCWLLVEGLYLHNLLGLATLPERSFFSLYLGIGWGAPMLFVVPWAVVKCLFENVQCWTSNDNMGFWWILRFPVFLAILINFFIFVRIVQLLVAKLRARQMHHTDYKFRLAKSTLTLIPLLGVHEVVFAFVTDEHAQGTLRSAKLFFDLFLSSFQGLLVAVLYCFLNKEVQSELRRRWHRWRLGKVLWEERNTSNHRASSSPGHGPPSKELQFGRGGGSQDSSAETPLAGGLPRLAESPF
Method: as §1, §2, §3, §4, §5, §6, §7

[4] = biological target: T4, mouse GLP-1 receptor (mGLP-1r) (Mus musculus, UniProt O35659); experiment: BSA-cAMP assay, cells expressing mouse GLP-1 receptor; conditions: Batch 1; BSA-cAMP assay; read-out: mGLP1r cAMP activity EC50
T4 construct: expressed in transfected cells; host or cells: HEK293s or CHO cells
T4 sequence (O35659 22-463): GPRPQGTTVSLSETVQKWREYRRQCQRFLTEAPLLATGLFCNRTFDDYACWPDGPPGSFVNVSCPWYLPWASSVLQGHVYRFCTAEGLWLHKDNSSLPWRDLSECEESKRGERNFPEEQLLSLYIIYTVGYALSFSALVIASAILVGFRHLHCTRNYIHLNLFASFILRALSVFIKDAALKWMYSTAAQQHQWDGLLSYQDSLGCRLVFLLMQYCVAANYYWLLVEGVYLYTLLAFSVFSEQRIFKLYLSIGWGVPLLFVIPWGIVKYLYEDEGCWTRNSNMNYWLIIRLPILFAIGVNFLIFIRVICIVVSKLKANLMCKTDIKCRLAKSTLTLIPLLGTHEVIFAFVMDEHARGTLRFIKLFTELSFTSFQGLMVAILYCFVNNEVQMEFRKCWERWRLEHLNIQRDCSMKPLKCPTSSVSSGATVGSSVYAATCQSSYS
Method: as §1, §2, §3, §4, §5, §6, §7
(§8) In order to be able to carry out in vivo studies in rodents, IP088 was tested for potency against the mouse receptors mGIPr and mGLP-1r as well as the rat receptors rGIPr and rGLP-1r, using cells expressing the respective receptors in the cAMP assay described above.

[5] = biological target: T5, mouse GIP receptor (mGIPr) (Mus musculus, UniProt Q0P543); experiment: BSA-cAMP assay, cells expressing mouse GIP receptor; conditions: Batch 1; BSA-cAMP assay; read-out: mGIPr cAMP activity EC50
T5 construct: expressed in transfected cells; host or cells: HEK293s or CHO cells
T5 sequence (Q0P543 19-460): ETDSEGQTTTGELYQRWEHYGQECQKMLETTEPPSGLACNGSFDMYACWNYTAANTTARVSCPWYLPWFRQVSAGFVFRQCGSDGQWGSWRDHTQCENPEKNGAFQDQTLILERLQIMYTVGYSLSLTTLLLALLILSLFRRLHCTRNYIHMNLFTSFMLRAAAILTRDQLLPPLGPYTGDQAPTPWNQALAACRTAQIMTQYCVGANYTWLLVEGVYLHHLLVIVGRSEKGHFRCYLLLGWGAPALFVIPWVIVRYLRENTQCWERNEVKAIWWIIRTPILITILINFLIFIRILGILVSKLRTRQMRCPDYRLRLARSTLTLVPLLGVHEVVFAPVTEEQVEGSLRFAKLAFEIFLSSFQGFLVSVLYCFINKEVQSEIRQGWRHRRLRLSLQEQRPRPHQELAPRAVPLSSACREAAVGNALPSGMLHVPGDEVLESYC
Method: as §1, §2, §3, §4, §5, §6, §7, §8

[6] = biological target: T6, rat GLP-1 receptor (rGLP-1r) (Rattus norvegicus, UniProt P32301); experiment: BSA-cAMP assay, cells expressing rat GLP-1 receptor; conditions: Batch 1; BSA-cAMP assay; read-out: rGLP1r cAMP activity EC50
T6 construct: expressed in transfected cells; host or cells: HEK293s or CHO cells
T6 sequence (P32301 22-463): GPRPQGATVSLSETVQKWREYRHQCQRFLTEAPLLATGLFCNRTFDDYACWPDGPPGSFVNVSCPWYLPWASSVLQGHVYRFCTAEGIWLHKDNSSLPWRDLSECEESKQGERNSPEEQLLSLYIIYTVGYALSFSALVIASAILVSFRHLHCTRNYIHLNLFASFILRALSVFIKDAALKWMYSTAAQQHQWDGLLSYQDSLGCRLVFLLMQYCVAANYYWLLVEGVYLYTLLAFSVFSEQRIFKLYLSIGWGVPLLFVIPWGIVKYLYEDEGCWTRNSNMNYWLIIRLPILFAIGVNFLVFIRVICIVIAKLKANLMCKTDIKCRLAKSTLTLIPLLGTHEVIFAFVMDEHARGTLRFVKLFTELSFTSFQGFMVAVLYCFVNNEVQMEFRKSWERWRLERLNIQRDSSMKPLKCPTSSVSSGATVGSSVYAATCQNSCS
Method: as §1, §2, §3, §4, §5, §6, §7, §8

rat GIP receptor (rGIPr) = biological target: T7, rat GIP receptor (rGIPr) (Rattus norvegicus, UniProt P43219); experiment: BSA-cAMP assay, cells expressing rat GIP receptor; conditions: Batch 1; BSA-cAMP assay; read-out: rGIPr cAMP activity EC50
T7 construct: expressed in transfected cells; host or cells: HEK293s or CHO cells
T7 sequence (P43219 19-455): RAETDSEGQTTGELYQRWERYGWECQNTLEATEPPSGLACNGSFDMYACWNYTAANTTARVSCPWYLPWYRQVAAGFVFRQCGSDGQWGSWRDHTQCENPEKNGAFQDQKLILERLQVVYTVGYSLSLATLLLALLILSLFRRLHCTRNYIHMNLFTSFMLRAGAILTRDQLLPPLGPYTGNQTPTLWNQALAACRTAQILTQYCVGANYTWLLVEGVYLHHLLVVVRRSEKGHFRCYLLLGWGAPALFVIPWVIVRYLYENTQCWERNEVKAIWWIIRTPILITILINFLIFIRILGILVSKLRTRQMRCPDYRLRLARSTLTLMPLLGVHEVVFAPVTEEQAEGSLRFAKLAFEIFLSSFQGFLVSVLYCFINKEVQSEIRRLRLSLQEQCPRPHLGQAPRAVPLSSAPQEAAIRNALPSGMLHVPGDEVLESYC
Method: as §1, §2, §3, §4, §5, §6, §7, §8

[7] = Batch 1, read-out: hGCGr cAMP activity EC50

T1 sequence (P43220 24-463): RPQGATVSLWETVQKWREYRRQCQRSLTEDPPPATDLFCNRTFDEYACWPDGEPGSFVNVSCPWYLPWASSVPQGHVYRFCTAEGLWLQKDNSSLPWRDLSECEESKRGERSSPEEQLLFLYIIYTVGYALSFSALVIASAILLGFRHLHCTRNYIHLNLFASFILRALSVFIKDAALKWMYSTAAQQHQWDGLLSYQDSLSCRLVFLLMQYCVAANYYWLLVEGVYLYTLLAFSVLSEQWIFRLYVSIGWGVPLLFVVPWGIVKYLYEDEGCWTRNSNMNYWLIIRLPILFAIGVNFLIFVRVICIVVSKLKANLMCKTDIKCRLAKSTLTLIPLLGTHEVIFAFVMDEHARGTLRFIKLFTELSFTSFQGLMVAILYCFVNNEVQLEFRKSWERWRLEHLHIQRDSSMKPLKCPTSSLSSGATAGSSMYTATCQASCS

Substance | EC50 ([1]; Batch 1) | EC50 [2] | EC50 [3, 7] | EC50 [4] | EC50 [5] | EC50 [6] | EC50 (rat GIP receptor (rGIPr)) | EC50 ([1]; Batch 2) | EC50 ([3]; Batch 2, read-out: hGCGr cAMP activity EC50)
IP299: Fc fusion, IgG1-TM(ΔK), SEQ ID NO:351; agonist peptide YSEGTFISDYSKLLEEEAVRDFVEWLKAGG (YSEGTFISDYSKLLEEEAVRDFVEWLKAGGGGGGGSGGGGSGGGGSGGGGSATHTCPPC) | > 3640 nM | 0.021 nM | 53 nM | > 3640 nM | 210 nM | 19 nM | 0.11 nM | – | –
IP302 (YSEGTFISDYSIALAAAAQQDFVNWLLAGGGGGGGSGGGGSGGGGSGGGGSATHTCPPC) | 26 nM | 0.018 nM | 1200 nM | 93 nM | 0.083 nM | 7 nM | 0.055 nM | – | –
IP319 (YSEGTFTSDYSKLLEAAAAAAFAAWLAAAAGGGGGSGGGGSGGGGSGGGGSACPPC) | – | – | – | – | – | – | – | 170 nM | > 445 nM
IP353 (YSEGTFTSDYAAAAEAAAAAAFAAWLAKAAGGGGGSGGGGSGGGGSGGGGSACPPC) | 20 nM | 1 nM | > 3210 nM | – | – | – | – | – | –
IP407: Fc fusion, IgG1-TM, SEQ ID NO:384; agonist peptide YSEGTFTSDYSKLLEEEAIRLFIEWLLAGG (YSEGTFTSDYSKLLEEEAIRLFIEWLLAGGGGGGSGGGGSGGGGSGGGGSATHTCPPC) | 0.25 nM | – | > 163 nM | – | 2.3 nM | – | – | – | –
IP413: Fc fusion, IgG1-TM, SEQ ID NO:388; agonist peptide YSEGTFTSDYSKLLEEEASRLFIEWLLAGG (YSEGTFTSDYSKLLEEEASRLFIEWLLAGGGGGGSGGGGSGGGGSGGGGSATHTCPPC) | 0.19 nM | – | 7.6 nM | 8.9 nM | 3.7 nM | 0.048 nM | > 113 nM | – | –
IP420: Fc fusion, IgG1-TM, SEQ ID NO:391; agonist peptide YSEGTFTSDYSKLLEEEATRLFIEWLLAGG (YSEGTFTSDYSKLLEEEATRLFIEWLLAGGGGGGSGGGGSGGGGSGGGGSATHTCPPC) | 0.082 nM | – | 21 nM | – | 2.6 nM | – | – | – | –
